Results reported in paper PMC6160459, “Identification of Peptide Mimotope Ligands for Natalizumab” (Scientific Reports, 2018).
Blank lines part the entries; values can stand above or below the binder they belong to.

Experiments:
Natalizumab = assay: peptide array variant scan, natalizumab binding in arbitrary ELISA units; conditions: chain shown with the change;, read off a plot
Ntz-02 synthetic peptide = assay: BLI; Octet Red96; 10 µg/ml peptide immobilised on a streptavidin sensor; natalizumab in solution 1-600 nM, three-fold dilutions; TBS; apparent affinity
Ntz-05 synthetic peptide = assay: as above
Ntz-04 synthetic peptide = assay: as above
Ntz-06 synthetic peptide [1] = assay: as above
Ntz-01 synthetic peptide = assay: as above
Ntz-07 synthetic peptide [2] = assay: as above
Ntz-03 synthetic peptide = assay: as above
Ntz-06 synthetic peptide [3] = assay: ELISA; Protocol-2: biotinylated peptide at 1 µg/ml in TBS on streptavidin-coated wells; natalizumab in 2.5% BSA/1X casein/TBST (or diluted human serum) 1 h at RT; detected with anti-IgG4-HRP; apparent affinity
Ntz-07 synthetic peptide [4] = assay: as above

B1: Ntz-02 parent peptide on the Pepscan array S4K (peptide)
chain: ACPKNPSKFC
response (Natalizumab; parent: est. 80): 1900 mAU

B2: Ntz-01 parent peptide on the Pepscan array H4R (peptide)
chain: ACPRNESKFC
response (Natalizumab; parent: est. 1100): 2400 mAU

B4: Ntz-01 parent peptide on the Pepscan array E6P (peptide)
chain: ACPMNPSKFC
response (Natalizumab; parent: est. 1100): 1500 mAU

B6: Natalizumab (antibody, V domains shown)
VH: QVQLVQSGAEVKKPGASVKVSCKASGFNIKDTYIHWVRQAPGQRLEWMGRIDPANGYTKYDPKFQGRVTITADTSASTAYMELSSLRSEDTAVYYCAREGYYGNYGVYAMDYWGQGTLVTVSS
VL: DIQMTQSPSSLSASVGDRVTITCKTSQDINKYMAWYQQTPGKAPRLLIHYTSALQPGIPSRFSGSGSGRDYTFTISSLQPEDIATYYCLQYDNLWTFGQGTKVEIK
Kd (Ntz-02 synthetic peptide): 0.0321 µM
Kd (Ntz-05 synthetic peptide): 0.0105 µM
Kd (Ntz-04 synthetic peptide): 0.00603 µM
Kd (Ntz-06 synthetic peptide [1]): 0.00687 µM
Kd (Ntz-01 synthetic peptide): 0.0291 µM
Kd (Ntz-07 synthetic peptide [2]): 0.00324 µM
Kd (Ntz-03 synthetic peptide): 0.0314 µM
fold improvement of apparent affinity over Ntz-01 (Ntz-06 synthetic peptide [3]): 1.7 fold
fold improvement of apparent affinity over Ntz-02 (Ntz-07 synthetic peptide [4]): 6.2 fold
fold improvement of apparent affinity over Ntz-03 (Ntz-07 synthetic peptide [4]): 14 fold

Second part, the binder after the results:

response (Natalizumab; parent: est. 80): 1000 mAU
B3: Ntz-02 parent peptide on the Pepscan array S4Q (peptide)
chain: ACPQNPSKFC

response (Natalizumab; parent: est. 60): 2300 mAU
B5: Ntz-03 parent peptide on the Pepscan array N7S (peptide)
chain: ACPKNPSKFC
